Experimental data as given in US20200093922A1 (AGENCY FOR SCIENCE TECHNOLOGY AND RESEARCH, published 2020).
Positions count from the first letter of the chain named.

What was measured:
[1] = target: T1, human PD-L1 (ELISA antigen, construct not stated) (human, UniProt Q9NZQ7 19-238, limits assumed); experiment: ELISA of Fab clones with human PD-L1 as antigen
T1 construct: The construct is not described; also called hu PD-L1

biotinylated human PD-L1 [2] = target: T2, biotinylated human PD-L1 (human, UniProt Q9NZQ7 19-238, limits assumed, biotinylated (site not stated)); experiment: blocking ELISA: biotinylated human PD-L1 pre-incubated with Fab, then added to coated human PD-1-Fc (blocked partner), streptavidin-HRP
[3] = target: T3, human PD-L1 coupled to human Fc (human, UniProt Q9NZQ7 19-239, limits assumed); experiment: ELISA on coated human PD-L1-Fc, Fab detected with anti-human Fab-HRP, absorbance 450-670 nm
T3 construct: also called human PD-L1-Fc; not shown: human Fc
Experimental: (§1) After 90 minutes at room temperature under agitation and extensive washes, a goat anti-human Fab antibody coupled to HRP was added. One hour later, plates were washed and TMB substrate added. The reaction was stopped with 1M HCl and optical density measured at 450 nm with a reference at 670 nm.

[4] = target: T4, biotinylated murine PD-L1 (murine, UniProt Q9EP73 19-238, limits assumed, biotinylated (site not stated)); experiment: blocking ELISA: biotinylated murine PD-L1 pre-incubated with Fab, then added to coated murine PD-1-Fc (blocked partner), streptavidin-HRP
[5] = target: T5, murine PD-L1 coupled to human Fc (murine, UniProt Q9EP73 19-238, limits assumed); experiment: ELISA on coated murine PD-L1-Fc, Fab detected with anti-human Fab-HRP, absorbance 450-670 nm
T5 construct: also called murine PD-L1-Fc; mouse PD-L1 coupled to Fc; not shown: human Fc
Experimental: as §1

[6] = target: T6, human PD-L1 expressed on transfected HEK 293 cells (human, UniProt Q9NZQ7 19-290); experiment: flow cytometry blocking assay: antibody mixed with human PD-1-PE (blocked partner), added to HEK293 cells transfected with human PD-L1
T6 construct: whole, on cells; also called PD-L1 transfected cells; HEK293-6E cells transfected with human PD-L1
Source text: Cells were washed 3 times with PBS and all data were collected on a BD FACSCanto II (BD Bioscience) and analysed on BD FACSDiva software (BD Bioscience).

[7] = target: T7, PD-L1 on MDA-MB-231 human breast cancer cells (human, UniProt Q9NZQ7 19-290); experiment: flow cytometry on MDA-MB-231 cells expressing PD-L1, MFI against IgG1 (nM)
T7 construct: whole, on cells; also called cells expressing PD-L1

[8] = target: T4, biotinylated murine PD-L1; experiment: blocking ELISA of murine PD-L1 binding to murine PD-1 (blocked partner), Example 3
human CTLA-4 = target: T8, human CTLA-4 (human, UniProt P16410 36-162, limits assumed); experiment: ELISA on coated antigen (sheet label huCTL-A4)
T8 construct: also called hu CTL-A4

biotinylated human PD-L1 [9] = target: T2, biotinylated human PD-L1; experiment: ELISA: antibody coated at 2 ug/mL, biotinylated human PD-L1 titrated (x axis Human PD-L1, nM), streptavidin-HRP
Experimental: Binding was measured by ELISA. Antibodies were coated onto maxisorp plates at 2 μg/mL in coating buffer and incubated overnight at 4° C. The next day, plates were washed with wash buffer (PBS+0.05% Tween-20), and blocker with casein for 1 hour, at room temperature. Plates were then washed again using wash buffer. […] Plates were then washed again using wash buffer. […] Plates were then washed again using wash buffer. Finally, TMB was added to develop the ELISA; TMB conversion by HRP was stopped using 1M H-Cl.

human BTLA = target: T9, human BTLA (human, UniProt Q7Z6A9 31-151, limits assumed); experiment: ELISA on coated antigen (sheet label huBTLA-Fc)
T9 construct: also called hu BLTA

human PD-L2 = target: T10, human PD-L2 (human, UniProt Q9BQ51 20-220, limits assumed); experiment: ELISA on coated antigen (sheet label huPD-L2-Fc)
T10 construct: also called hu PD-L2
T10 sequence (looked up): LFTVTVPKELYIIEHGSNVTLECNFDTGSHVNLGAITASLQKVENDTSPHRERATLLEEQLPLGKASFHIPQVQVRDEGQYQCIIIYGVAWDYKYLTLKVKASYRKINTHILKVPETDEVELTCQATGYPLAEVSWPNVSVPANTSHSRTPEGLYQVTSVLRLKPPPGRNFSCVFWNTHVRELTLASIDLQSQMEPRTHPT

biotinylated human PD-L1 [10] = target: T2, biotinylated human PD-L1; experiment: avidity ELISA: biotinylated human PD-L1 at 0.2 ug/mL on neutravidin, antibody titrated (x axis IgG, nM), anti-human Fc-HRP
Experimental: Neutravidin was coated onto maxisorp plates at 2 μg/mL in coating buffer and incubated overnight at 4° C. The next day, plates were washed with wash buffer (PBS+0.05% Tween-20), and blocker with casein for 1 hour, at room temperature. Plates were then washed again using wash buffer. […] Plates were then washed again using wash buffer. The different antibodies were then added at various concentrations, and incubated for 1 hour at room temperature. Plates were then washed again using wash buffer. Anti-human Fc-HRP was then added and incubated for 1 hour at room temperature. Plates were then washed again using wash buffer. Finally, TMB was added to develop the ELISA; TMB conversion by HRP was stopped using 1M H-Cl.

human CD28 = target: T11, human CD28 (human, UniProt P10747 19-152, limits assumed); experiment: ELISA on coated antigen (sheet label huCD28-Fc)
T11 construct: also called hu CD28

human LAG-3 = target: T12, human LAG-3 (human, UniProt P18627 23-450, limits assumed); experiment: ELISA on coated antigen (sheet label huLAG-3-Fc)
T12 construct: also called hu LAG-3
T12 sequence (looked up): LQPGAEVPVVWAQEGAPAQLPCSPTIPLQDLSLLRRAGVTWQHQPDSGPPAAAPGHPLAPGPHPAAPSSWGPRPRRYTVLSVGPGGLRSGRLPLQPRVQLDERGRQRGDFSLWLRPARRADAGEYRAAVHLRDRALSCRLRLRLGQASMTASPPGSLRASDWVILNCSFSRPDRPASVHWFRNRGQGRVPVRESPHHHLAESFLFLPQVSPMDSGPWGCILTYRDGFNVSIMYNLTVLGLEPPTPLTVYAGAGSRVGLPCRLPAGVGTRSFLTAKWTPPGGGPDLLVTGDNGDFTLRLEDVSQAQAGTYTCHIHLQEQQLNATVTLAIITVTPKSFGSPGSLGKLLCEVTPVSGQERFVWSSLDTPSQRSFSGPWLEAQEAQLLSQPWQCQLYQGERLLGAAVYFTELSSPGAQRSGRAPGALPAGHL

human ICOS = target: T13, human ICOS (human, UniProt Q9Y6W8 21-140, limits assumed); experiment: ELISA on coated antigen (sheet label huICOS-Fc)
T13 construct: also called hu ICOS
T13 sequence (looked up): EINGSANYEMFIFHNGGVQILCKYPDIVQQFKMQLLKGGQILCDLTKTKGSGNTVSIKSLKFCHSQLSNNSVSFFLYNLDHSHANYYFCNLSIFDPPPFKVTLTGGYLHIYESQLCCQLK

[11] = target: PD-L1 (blocking ELISA of Example 13) (Homo sapiens (Human), UniProt Q9NZQ7 19-238); experiment: blocking ELISA: antibody pre-incubated with PD-L1, added to coated PD-1 (blocked partner), PD-1-bound PD-L1 detected
human TIM-3 = target: T14, human TIM-3 (human, UniProt Q8TDQ0 22-200, limits assumed); experiment: ELISA on coated antigen (sheet label huTIM-3-Fc)
T14 construct: also called hu TIM-3

[12] = target: T15, human PD-1 (ELISA antigen of Example 8) (human, UniProt Q15116 25-167, limits assumed); experiment: ELISA on coated antigen (sheet label huPD-1-Fc)
T15 construct: also called hu PD-1
T15 sequence (Q15116 25-167 limits assumed): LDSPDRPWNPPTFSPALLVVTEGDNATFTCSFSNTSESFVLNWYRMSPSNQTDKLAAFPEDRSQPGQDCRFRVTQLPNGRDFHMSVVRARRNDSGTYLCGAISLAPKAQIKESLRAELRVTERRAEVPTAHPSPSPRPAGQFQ

T6 sequence (Q9NZQ7 19-290): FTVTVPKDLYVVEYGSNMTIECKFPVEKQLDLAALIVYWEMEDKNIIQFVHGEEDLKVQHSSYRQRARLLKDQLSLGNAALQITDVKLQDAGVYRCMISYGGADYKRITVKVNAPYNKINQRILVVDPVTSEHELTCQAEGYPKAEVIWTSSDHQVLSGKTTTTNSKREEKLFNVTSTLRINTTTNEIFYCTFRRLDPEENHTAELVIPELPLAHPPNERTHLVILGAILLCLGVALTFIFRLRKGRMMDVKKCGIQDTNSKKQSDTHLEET
T2 sequence (Q9NZQ7 19-238 limits assumed): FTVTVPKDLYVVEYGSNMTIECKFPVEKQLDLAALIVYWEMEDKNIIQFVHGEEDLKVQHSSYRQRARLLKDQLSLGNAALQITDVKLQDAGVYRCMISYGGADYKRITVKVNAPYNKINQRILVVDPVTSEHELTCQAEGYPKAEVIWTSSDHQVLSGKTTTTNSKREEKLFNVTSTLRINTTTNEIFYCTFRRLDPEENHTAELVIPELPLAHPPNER
T5 sequence (Q9EP73 19-238 limits assumed): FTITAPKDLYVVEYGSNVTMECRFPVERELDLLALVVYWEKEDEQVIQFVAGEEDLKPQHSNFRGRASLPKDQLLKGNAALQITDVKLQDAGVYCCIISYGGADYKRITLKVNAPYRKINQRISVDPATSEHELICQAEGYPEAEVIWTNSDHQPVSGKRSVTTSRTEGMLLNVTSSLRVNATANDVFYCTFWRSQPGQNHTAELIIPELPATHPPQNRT
T4 sequence (Q9EP73 19-238 limits assumed): as above
T7 sequence (Q9NZQ7 19-290): as the sequence (Q9NZQ7 19-290) above
PD-L1 (blocking ELISA of Example 13), sequence (Q9NZQ7 19-238 limits assumed): as the sequence (Q9NZQ7 19-238 limits assumed) above
T9 sequence (Q7Z6A9 31-151 limits assumed): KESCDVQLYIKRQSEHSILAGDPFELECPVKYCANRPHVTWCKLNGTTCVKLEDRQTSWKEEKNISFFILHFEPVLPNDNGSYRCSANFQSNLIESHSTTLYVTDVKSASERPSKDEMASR
T3 sequence (Q9NZQ7 19-239 limits assumed): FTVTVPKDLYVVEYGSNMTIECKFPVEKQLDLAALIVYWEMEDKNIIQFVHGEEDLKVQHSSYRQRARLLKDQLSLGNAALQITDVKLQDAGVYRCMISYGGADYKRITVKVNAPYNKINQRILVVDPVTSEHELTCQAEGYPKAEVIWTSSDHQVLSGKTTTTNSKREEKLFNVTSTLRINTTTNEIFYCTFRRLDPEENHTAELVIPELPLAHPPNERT
T1 sequence (Q9NZQ7 19-238 limits assumed): as the sequence (Q9NZQ7 19-238 limits assumed) above
T8 sequence (P16410 36-162 limits assumed): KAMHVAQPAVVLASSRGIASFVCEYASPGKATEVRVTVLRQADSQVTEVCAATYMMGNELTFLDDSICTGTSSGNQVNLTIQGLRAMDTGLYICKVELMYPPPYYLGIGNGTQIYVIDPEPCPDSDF

B1: anti-PD-L1 antibody clone A1, Fab format (Fab, V domains shown)
VH: QVQLQQSGAEVKKPGSSVKVSCKASGGTFSSYAISWVRQAPGQGLEWMGRIIPILGIANYAQKFQGRVTITADKSTSTAYMELSSLRSEDTAVYYCARGGSYGSLYAFDIWGQGTMVTVSS
VL: QSVLTQPPSVSAAPGQRVSISCSGRSSNIASHDVFWYQQLPGTAPKIVMYETNKRPWGIPDRFSGSKSGTSATLDIAGLQTGDEADYYCGAWDSGLTGMLFGGGTKVTVL
notes: From a human phage display library and tested as Fab; the Fab constant domains are not
binding result [1]: binds
binding result (biotinylated human PD-L1 [2]): binds
binding result [3]: binds
binding result [4]: binds
binding result [5]: binds

B2: anti-PD-L1 antibody clone C2, Fab format (Fab, V domains shown)
VH: B1 VH with M116T
VL: SYELTQPPSVSVAPGKTTRITCGGDNIGRKSVHWYQQRPGQAPLLLVYDDGDRPSGIPDRFSGSNSGNTATLTISGTQAMDEADYYCQAWDSTVVFGGGTRLTVL
notes: Tested as Fab
IC50 (read off the curve) (biotinylated human PD-L1 [2]): ~50 nM
binding result [4]: binds
binding result [5]: binds

B3: anti-PD-L1 antibody H12_GL in IgG4 format (antibody, V domains shown)
VH: B1 VH with Q5V, G99S, S101H, Y102G, G103Y, L105Y, Y106G, I110Y, M116L
VL: QSVLTQPPSVSGAPGQRVTISCTGSSSNIGAGYDVHWYQQLPGTAPKLLIYGNSNRPSGVPDRFSGSKSGTSASLAITGLQAEDEADYYCQSYDSSLSGSYVVFGGGTKLTVL
notes: IgG4; also called H12_GL-IgG4
IC50 (read off the curve) [6]: ~8 nM

B4: anti-PD-L1 antibody H12_GL in IgG1 format (antibody, V domains shown)
VH: B1 VH with Q5V, G99S, S101H, Y102G, G103Y, L105Y, Y106G, I110Y, M116L
VL: B3 VL
notes: H12 with its framework reverted to germline-like; IgG1; also called H12_GL-IgG1
IC50 (read off the curve) [6]: ~8 nM

B5: anti-PD-L1 antibody H12 in IgG1 format (antibody, V domains shown)
VH: EVQLVQSGAEVKKPGASVKVSCKASGGTFSSYAISWVRQAPGQGLEWMGRIIPILGIANYAQKFQGRVTITADKSTSTAYMELSSLRSEDTAVYYCARSGHGYSYGAFDYWGQGTL
VL: B3 VL
notes: IgG1; also called H12 (IgG1); H12-IgG1
EC50 (read off the curve) [7]: ~200 nM
IC50 (read off the curve) [6]: ~8 nM
IC50 (read off the curve) [8]: ~1 nM

B6: anti-PD-L1 antibody H12 (format not stated) (antibody, V domains shown)
VH: B5 VH
VL: B3 VL
binding result (human CTLA-4): no binding
EC50 (read off the curve) (biotinylated human PD-L1 [9]): ~0.4 nM
binding result (human BTLA): no binding
binding result (human PD-L2): no binding
EC50 (read off the curve) (biotinylated human PD-L1 [10]): ~0.1 nM
binding result (human CD28): no binding
binding result (human LAG-3): no binding
binding result (human ICOS): no binding
IC50 (read off the curve) [11]: ~2 nM
binding result (human TIM-3): no binding
binding result [12]: no binding

B7: anti-PD-L1 antibody H12 in IgG4 format (antibody, V domains shown)
VH: B5 VH
VL: B3 VL
notes: IgG4; also called H12-IgG4
IC50 (read off the curve) [6]: ~8 nM

B8: anti-PD-L1 antibody clone C4, Fab format (Fab, V domains shown)
VH: QVQLQQSGAEVKKPGSSVKVSCKASGGTFSSYAISWVRQAPGQGLEWMGRIIPILGIANYAQKFQGRVTITADKSTSTAYMELSSLRSEDTAVYYCARGGYGGNSLYAFDIWGQGTMVTVSS
VL: QSVVTQPPSVSAAPGQKVTISCSGSSSNIGNNYVSWYQQLPGTAPKLLIYDNNERLSGIPDRFSGSKSGTSATLGISGLQTGDEADYYCGTWDSSLSVVVFGGGTKLTVL
notes: Tested as Fab
IC50 (read off the curve) (biotinylated human PD-L1 [2]): ~50 nM
binding result [4]: binds
binding result [5]: binds

B9: anti-PD-L1 antibody C4 (format not stated) (antibody, V domains shown)
VH: B8 VH
VL: B8 VL
EC50 (read off the curve) (biotinylated human PD-L1 [9]): ~0.8 nM
EC50 (read off the curve) (biotinylated human PD-L1 [10]): ~1 nM
IC50 (read off the curve) [11]: ~2 nM

B10: anti-PD-L1 antibody C4 in IgG1 format (antibody, V domains shown)
VH: B8 VH
VL: B8 VL
notes: also called C4 IgG1
EC50 (read off the curve) [7]: ~200 nM
